First the molecules themselves.
B1: Mpa coiled-coil domain, residues 46-96 (Mpa46-96) (domain or fragment)
chain: SHAPTRSARDIHQLEARIDSLAARNSKLMETLKEARQQLLALREEVDRLGQ
B2: Full-length prokaryotic ubiquitin-like protein, Pup1-64-GGQ with a C-terminal non-cleavable His6-tag (natural protein)
chain: MAQEQTKRGGGGGDDDDIAGSTAAGQERREKLTEETDDLLDEIDDVLEENAEDFVRAYVQKGGQ

Where no end group is shown, it is not given here.

Holding throughout (assay): […]
Test [1] deals with B2.
The target in test [2] is B1.
Test [3] addresses T1, Mpa residues 1-96 (Mpa1-96) (Mycobacterium tuberculosis, UniProt P9WQN5 1-96).
T1 sequence: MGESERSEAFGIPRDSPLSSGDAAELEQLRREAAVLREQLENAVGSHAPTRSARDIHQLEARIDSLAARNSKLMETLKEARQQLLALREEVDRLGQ

As to B1, in test [1], the binding result was “binds”.
For {His6‑tag}-STAAGQERREKLTEETDDLLDEIDDVLEENAEDFVRAYVQKGGE (domain or fragment, not fully specified) [N-terminal truncated prokaryotic ubiquitin-like protein, Pup21-64-GGE with an N-terminal His6-tag], the binding result in test [2] is “binds”.
In the case of B2, the binding result in test [3] is recorded as “binds”.

Values taken from article PMC2988878 (Nature structural & molecular biology, 2010).
